The source of these data is patent publication US20040002144.

One data set deals with T1, ovalbumin, P01012.
T1 chain: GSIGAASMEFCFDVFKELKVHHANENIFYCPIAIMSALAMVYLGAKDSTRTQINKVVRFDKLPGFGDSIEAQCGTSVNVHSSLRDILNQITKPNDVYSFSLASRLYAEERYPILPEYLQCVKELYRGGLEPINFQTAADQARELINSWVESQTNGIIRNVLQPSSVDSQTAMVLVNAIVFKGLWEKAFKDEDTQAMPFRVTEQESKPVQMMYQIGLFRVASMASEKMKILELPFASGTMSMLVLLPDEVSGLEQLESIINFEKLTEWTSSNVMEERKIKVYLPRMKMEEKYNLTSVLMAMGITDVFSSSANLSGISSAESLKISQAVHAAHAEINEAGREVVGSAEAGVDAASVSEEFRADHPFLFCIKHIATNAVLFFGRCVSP

For data set [1], the target named is insulin A chain wherein cysteine residue had been oxidized (Sigma).

Entries after “also recorded” stand apart in the source; their conditions may differ.

insulin A chain wherein cysteine residue had been oxidized (Sigma), sequence (chain, as listed by the source): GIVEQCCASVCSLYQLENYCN

B1: Sg4 mutant MTG (residue Nos. 241 to 252 replaced with 3 glycine residues) (protein)
chain: DSDDRVTPPAEPLDRMPDPYRPSYGRAETVVNNYIRKWQQVYSHRDGRKQQMTEEQREWLSYGCVGVTWVNSGQYPTNRLAFASFDEDRFKNELKNGRPRSGETRAEFEGRVAKESFDEEKGFQRAREVASVMNRALENAHDESAYLDNLKKELANGNDALRNEDARSPFYSALRNTPSFKERNGGNHDPSRMKAVIYSKHFWSGQDRSSSADKRKYGDPDAFRPAPGTGLVDMSRDRNIGGGNFDYGWFGAQTEADADKTVWTHGNHYHAPNGSLGAMHVYESKFRNWSEGYSDFDRGAYVITFIPKSWNTAPDKVKQGWP
Consider B1, for which, in the data set with ovalbumin, P01012, the “groups of 1H-15N HSQC signals of 15N-labeled ovalbumin glutamine residues after 6 hours” value (“groups” for short) is “only 3 groups and 2 groups of the signals were found when Sg4 and Sg7 were used, respectively”.

B2: S2Y mutant MTG (Ser2 replaced with Tyr, in Met type MTG) (protein)
chain: MDYDDRVTPPAEPLDRMPDPYRPSYGRAETVVNNYIRKWQQVYSHRDGRKQQMTEEQREWLSYGCVGVTWVNSGQYPTNRLAFASFDEDRFKNELKNGRPRSGETRAEFEGRVAKESFDEEKGFQRAREVASVMNRALENAHDESAYLDNLKKELANGNDALRNEDARSPFYSALRNTPSFKERNGGNHDPSRMKAVIYSKHFWSGQDRSSSADKRKYGDPDAFRPAPGTGLVDMSRDRNIPRSPTSPGEGFVNFDYGWFGAQTEADADKTVWTHGNHYHAPNGSLGAMHVYESKFRNWSEGYSDFDRGAYVITFIPKSWNTAPDKVKQGWP
Consider B2, for which the “15N-labeling rate of the ovalbumin glutamine residue giving signal "a"” value with ovalbumin, P01012 is given as “the order of the 15N-labeling rate was S2Y<S2D<wild type<S2R”.

B3: S2R mutant MTG (Ser2 replaced with Arg, in Met type MTG) (protein)
chain: MDRDDRVTPPAEPLDRMPDPYRPSYGRAETVVNNYIRKWQQVYSHRDGRKQQMTEEQREWLSYGCVGVTWVNSGQYPTNRLAFASFDEDRFKNELKNGRPRSGETRAEFEGRVAKESFDEEKGFQRAREVASVMNRALENAHDESAYLDNLKKELANGNDALRNEDARSPFYSALRNTPSFKERNGGNHDPSRMKAVIYSKHFWSGQDRSSSADKRKYGDPDAFRPAPGTGLVDMSRDRNIPRSPTSPGEGFVNFDYGWFGAQTEADADKTVWTHGNHYHAPNGSLGAMHVYESKFRNWSEGYSDFDRGAYVITFIPKSWNTAPDKVKQGWP
As for B3, the “15N-labeling rate of the ovalbumin glutamine residue giving signal "a"” value with ovalbumin, P01012 is listed as “the order of the 15N-labeling rate was S2Y<S2D<wild type<S2R”.

B4: S2D mutant MTG (Ser2 replaced with Asp, in Met type MTG) (protein)
chain: MDDDDRVTPPAEPLDRMPDPYRPSYGRAETVVNNYIRKWQQVYSHRDGRKQQMTEEQREWLSYGCVGVTWVNSGQYPTNRLAFASFDEDRFKNELKNGRPRSGETRAEFEGRVAKESFDEEKGFQRAREVASVMNRALENAHDESAYLDNLKKELANGNDALRNEDARSPFYSALRNTPSFKERNGGNHDPSRMKAVIYSKHFWSGQDRSSSADKRKYGDPDAFRPAPGTGLVDMSRDRNIPRSPTSPGEGFVNFDYGWFGAQTEADADKTVWTHGNHYHAPNGSLGAMHVYESKFRNWSEGYSDFDRGAYVITFIPKSWNTAPDKVKQGWP
B4: the “15N-labeling rate of the ovalbumin glutamine residue giving signal "a"” value with ovalbumin, P01012 is on record as “the order of the 15N-labeling rate was S2Y<S2D<wild type<S2R”.

B5: del 1-2 mutant MTG (residue Nos. 1 and 2 removed) (protein)
chain: DDRVTPPAEPLDRMPDPYRPSYGRAETVVNNYIRKWQQVYSHRDGRKQQMTEEQREWLSYGCVGVTWVNSGQYPTNRLAFASFDEDRFKNELKNGRPRSGETRAEFEGRVAKESFDEEKGFQRAREVASVMNRALENAHDESAYLDNLKKELANGNDALRNEDARSPFYSALRNTPSFKERNGGNHDPSRMKAVIYSKHFWSGQDRSSSADKRKYGDPDAFRPAPGTGLVDMSRDRNIPRSPTSPGEGFVNFDYGWFGAQTEADADKTVWTHGNHYHAPNGSLGAMHVYESKFRNWSEGYSDFDRGAYVITFIPKSWNTAPDKVKQGWP
In the case of B5, the “reactivity to the ovalbumin glutamine residue giving signal "a" (1H-15N HSQC peak intensity vs. reaction time)” value in the data set with ovalbumin, P01012 was “the reactivity of each of del 1-2 and del 1-3 was improved as compared with that of the wild type”.

B6: transglutaminase derived from Streptoverticillium mobaraense (MTG), wild type (protein)
chain: DSDDRVTPPAEPLDRMPDPYRPSYGRAETVVNNYIRKWQQVYSHRDGRKQQMTEEQREWLSYGCVGVTWVNSGQYPTNRLAFASFDEDRFKNELKNGRPRSGETRAEFEGRVAKESFDEEKGFQRAREVASVMNRALENAHDESAYLDNLKKELANGNDALRNEDARSPFYSALRNTPSFKERNGGNHDPSRMKAVIYSKHFWSGQDRSSSADKRKYGDPDAFRPAPGTGLVDMSRDRNIPRSPTSPGEGFVNFDYGWFGAQTEADADKTVWTHGNHYHAPNGSLGAMHVYESKFRNWSEGYSDFDRGAYVITFIPKSWNTAPDKVKQGWP
With B6, in the data set with ovalbumin, P01012, the “15N-labeling rate of the ovalbumin glutamine residue giving signal "a"” value is on record as “the order of the 15N-labeling rate was S2Y<S2D<wild type<S2R” and the “groups” value is 6 groups of the signals were found when the wild type was used. For the same protein, the “15N-labeled residue identified by mass spectrometry” value in data set [1] is given as “in the two glutamine residues in insulin A chain, the 15th glutamine residue was the substrate of MTG”.

B7: Sg7 mutant MTG (residue Nos. 278 to 287 replaced with 3 glycine residues) (protein)
chain: DSDDRVTPPAEPLDRMPDPYRPSYGRAETVVNNYIRKWQQVYSHRDGRKQQMTEEQREWLSYGCVGVTWVNSGQYPTNRLAFASFDEDRFKNELKNGRPRSGETRAEFEGRVAKESFDEEKGFQRAREVASVMNRALENAHDESAYLDNLKKELANGNDALRNEDARSPFYSALRNTPSFKERNGGNHDPSRMKAVIYSKHFWSGQDRSSSADKRKYGDPDAFRPAPGTGLVDMSRDRNIPRSPTSPGEGFVNFDYGWFGAQTEADADKTVWTHGNHGGGMHVYESKFRNWSEGYSDFDRGAYVITFIPKSWNTAPDKVKQGWP
Consider B7, for which, in the data set with ovalbumin, P01012, the “groups” value was “only 3 groups and 2 groups of the signals were found when Sg4 and Sg7 were used, respectively”.

B8: Ser-type MTG (mutant in which Asp1 has been removed, starts with Ser2) (protein)
chain: SDDRVTPPAEPLDRMPDPYRPSYGRAETVVNNYIRKWQQVYSHRDGRKQQMTEEQREWLSYGCVGVTWVNSGQYPTNRLAFASFDEDRFKNELKNGRPRSGETRAEFEGRVAKESFDEEKGFQRAREVASVMNRALENAHDESAYLDNLKKELANGNDALRNEDARSPFYSALRNTPSFKERNGGNHDPSRMKAVIYSKHFWSGQDRSSSADKRKYGDPDAFRPAPGTGLVDMSRDRNIPRSPTSPGEGFVNFDYGWFGAQTEADADKTVWTHGNHYHAPNGSLGAMHVYESKFRNWSEGYSDFDRGAYVITFIPKSWNTAPDKVKQGWP
With B8, the “15N-labeling rate of the ovalbumin glutamine residue giving signal "a" (1H-15N HSQC peak intensity vs. reaction time)” value with ovalbumin, P01012 is reported as “more rapidly 15N-labeled when it was reacted with the Ser-type rather than when reacted with the wild type”.

B9: del 1-3 mutant MTG (residue Nos. 1 to 3 removed) (protein)
chain: DRVTPPAEPLDRMPDPYRPSYGRAETVVNNYIRKWQQVYSHRDGRKQQMTEEQREWLSYGCVGVTWVNSGQYPTNRLAFASFDEDRFKNELKNGRPRSGETRAEFEGRVAKESFDEEKGFQRAREVASVMNRALENAHDESAYLDNLKKELANGNDALRNEDARSPFYSALRNTPSFKERNGGNHDPSRMKAVIYSKHFWSGQDRSSSADKRKYGDPDAFRPAPGTGLVDMSRDRNIPRSPTSPGEGFVNFDYGWFGAQTEADADKTVWTHGNHYHAPNGSLGAMHVYESKFRNWSEGYSDFDRGAYVITFIPKSWNTAPDKVKQGWP
On to B9, for which, in the data set with ovalbumin, P01012, the “reactivity to the ovalbumin glutamine residue giving signal "a" (1H-15N HSQC peak intensity vs. reaction time)” value is “the reactivity of each of del 1-2 and del 1-3 was improved as compared with that of the wild type; also recorded: the reactivity of del 1-3 was even much higher than that of Ser type or S2R”.
